From paper PMC6549159

Molecular target: GFP-tagged mDia1ΔN3 (mouse) (UniProt O08808)
Chain of UniProt O08808 (O08808 543-1192, stated change not applied): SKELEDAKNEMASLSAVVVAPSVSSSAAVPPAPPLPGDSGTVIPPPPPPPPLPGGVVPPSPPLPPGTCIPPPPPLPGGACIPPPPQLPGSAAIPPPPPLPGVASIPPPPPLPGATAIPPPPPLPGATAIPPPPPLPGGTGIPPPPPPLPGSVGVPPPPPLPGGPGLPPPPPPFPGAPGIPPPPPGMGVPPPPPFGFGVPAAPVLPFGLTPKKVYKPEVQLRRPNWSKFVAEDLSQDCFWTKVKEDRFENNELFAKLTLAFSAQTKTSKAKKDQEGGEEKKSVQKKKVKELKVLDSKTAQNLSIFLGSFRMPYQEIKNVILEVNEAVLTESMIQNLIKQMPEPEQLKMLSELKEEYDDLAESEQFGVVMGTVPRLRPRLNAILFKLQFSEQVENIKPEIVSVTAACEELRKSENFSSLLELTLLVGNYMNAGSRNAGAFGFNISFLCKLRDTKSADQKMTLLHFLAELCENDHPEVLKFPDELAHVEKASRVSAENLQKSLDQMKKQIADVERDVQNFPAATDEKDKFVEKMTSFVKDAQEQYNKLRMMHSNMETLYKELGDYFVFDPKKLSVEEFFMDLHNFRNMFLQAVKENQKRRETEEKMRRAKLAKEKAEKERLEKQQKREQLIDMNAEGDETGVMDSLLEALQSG

Flag-tagged mouse Phb2 FL (from UniProt O35129 1-299) (natural protein)
frequency of MyoG+ cells (immunofluorescence) in C2C12 myotubes co-expressing Phb2 FL and mDia1ΔN3 (mDia1ΔN3 alone: 15%): 53%
